Data published in patent US20020037999.

Test system: p54 SAPKβ (JNK3) fused to the WIN-ZIP B1 leucine zipper and Myc tag

| Substance | tyrosine phosphorylation of p54 (anti-Myc immunoprecipitates probed with anti-PTyr) |
| --- | --- |
| v-Src fused at the N-terminus with HA tag alone | p54 is phosphorylated on tyrosine only when the WIN-ZIP A1-Src fusion is present (so not with v-Src carrying the HA tag alone) |
| v-Src fused at the N-terminus with HA tag plus WIN-ZIP A1 leucine zipper | p54 is phosphorylated on tyrosine only when the WIN-ZIP A1-Src fusion is present |
